Experimental data taken from publication PMC4041446, “Eukaryotic and archaeal TBP and TFB/TF(II)B follow different promoter DNA bending pathways”.

How the values were obtained:
[1] = molecular target: SaTBP;SaTFB (TFB1) (Sulfolobus acidocaldarius;Sulfolobus acidocaldarius) (UniProt Q9UWN7); assay: smFRET titration (confocal); settings: smFRET: N70 buffer (Mj) or N65 buffer (Sa), compositions in Table 1 not in the material, Sa EMSA: 10 mM MOPS pH 6.5, 180 mM NaCl, 20 mM KOAc, 11 mM MgCl2, 10% …
[2] = molecular target: SaTBP;SaTFB (TFB1) (Sulfolobus acidocaldarius;Sulfolobus acidocaldarius) (UniProt Q9UWN7); assay: smFRET; settings: smFRET: N70 buffer (Mj) or N65 buffer (Sa), compositions in Table 1 not in the material, Sa EMSA: 10 mM MOPS pH 6.5, 180 mM NaCl, 20 mM KOAc, 11 mM MgCl2, 10% …
[3] = molecular target: T1, MjTBP;MjTFB (Methanocaldococcus jannaschii;Methanocaldococcus jannaschii) (UniProt Q57930+Q58192+Q58192); assay: smFRET; settings: MjTBP + MjTFB; smFRET: N70 buffer (Mj) or N65 buffer (Sa), compositions in Table 1 not in the material; Sa EMSA: 10 mM MOPS pH 6.5, 180 mM NaCl, 20 mM KOAc, 11 mM MgCl2, 10% …
T1 sequence 1: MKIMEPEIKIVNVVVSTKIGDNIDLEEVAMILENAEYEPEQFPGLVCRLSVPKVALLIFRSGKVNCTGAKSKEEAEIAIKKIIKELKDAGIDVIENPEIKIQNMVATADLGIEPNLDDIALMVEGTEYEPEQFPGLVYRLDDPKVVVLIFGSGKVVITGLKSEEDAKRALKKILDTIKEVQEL
T1 sequence 2: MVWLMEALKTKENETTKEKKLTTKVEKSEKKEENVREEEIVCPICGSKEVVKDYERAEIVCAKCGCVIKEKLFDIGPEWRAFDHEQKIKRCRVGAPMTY
T1 sequence 3: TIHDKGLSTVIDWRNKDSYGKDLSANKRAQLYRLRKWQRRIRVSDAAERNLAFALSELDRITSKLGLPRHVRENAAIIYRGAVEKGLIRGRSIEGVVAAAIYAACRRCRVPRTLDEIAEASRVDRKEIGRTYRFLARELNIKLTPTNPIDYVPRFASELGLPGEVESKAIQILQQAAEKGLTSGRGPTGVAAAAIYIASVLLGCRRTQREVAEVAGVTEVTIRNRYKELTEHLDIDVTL

[4] = molecular target: T2, ScTBP;ScTF(II)B (Saccharomyces cerevisiae;Saccharomyces …, UniProt P13393;P29055 1-240;1-345, |); assay: smFRET; TF(II)B stabilizes fully bent state; smFRET: N70 buffer (Mj) or N65 buffer (Sa), compositions in Table 1 not in the material; Sa EMSA: 10 mM MOPS pH 6.5, 180 mM NaCl, 20 mM KOAc, 11 mM MgCl2, 10% glycerol, 5 mM DTT, 1 ug BSA, 100 ug/ml heparin, 65 C 5 min; settings: protein: recombinant;recombinant; tags: ;; copies: 1;1; label: donor and ATTO647n acceptor
T2 sequence 1: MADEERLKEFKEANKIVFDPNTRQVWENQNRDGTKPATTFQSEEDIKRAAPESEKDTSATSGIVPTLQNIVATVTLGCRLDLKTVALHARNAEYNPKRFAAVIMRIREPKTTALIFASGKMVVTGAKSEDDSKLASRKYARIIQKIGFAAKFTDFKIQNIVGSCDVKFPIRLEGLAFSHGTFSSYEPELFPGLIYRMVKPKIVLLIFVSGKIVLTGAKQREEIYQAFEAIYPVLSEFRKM
T2 sequence 2: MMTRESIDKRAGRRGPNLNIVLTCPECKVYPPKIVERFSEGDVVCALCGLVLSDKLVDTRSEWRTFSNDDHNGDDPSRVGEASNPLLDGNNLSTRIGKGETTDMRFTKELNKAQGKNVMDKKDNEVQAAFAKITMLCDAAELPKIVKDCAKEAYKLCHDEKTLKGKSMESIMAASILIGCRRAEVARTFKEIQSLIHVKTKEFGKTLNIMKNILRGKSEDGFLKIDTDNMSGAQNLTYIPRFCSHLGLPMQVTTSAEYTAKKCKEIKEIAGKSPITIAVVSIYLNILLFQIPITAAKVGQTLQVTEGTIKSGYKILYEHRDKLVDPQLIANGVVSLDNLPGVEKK

[5] = molecular target: T3, ScTBP (Saccharomyces cerevisiae, UniProt P13393 1-240); assay: smFRET titration (confocal); smFRET: N70 buffer (Mj) or N65 buffer (Sa), compositions in Table 1 not in the material; Sa EMSA: 10 mM MOPS pH 6.5, 180 mM NaCl, 20 mM KOAc, 11 mM MgCl2, 10% glycerol, 5 mM DTT, 1 ug BSA, 100 ug/ml heparin, 65 C 5 min; settings: protein: recombinant; label: donor and ATTO647n acceptor
T3 sequence: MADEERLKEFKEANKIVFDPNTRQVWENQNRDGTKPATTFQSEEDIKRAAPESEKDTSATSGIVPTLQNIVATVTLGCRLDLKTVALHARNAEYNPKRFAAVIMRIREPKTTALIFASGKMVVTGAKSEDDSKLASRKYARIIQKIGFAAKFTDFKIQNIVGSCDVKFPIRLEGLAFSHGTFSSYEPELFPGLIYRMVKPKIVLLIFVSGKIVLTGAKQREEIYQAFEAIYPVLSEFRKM

[6] = molecular target: T4, MjTBP (Methanocaldococcus jannaschii, UniProt Q57930 1-183); assay: as above; settings: protein: recombinant; label: Cy3B or ATTO532 donor, ATTO647n acceptor
T4 sequence: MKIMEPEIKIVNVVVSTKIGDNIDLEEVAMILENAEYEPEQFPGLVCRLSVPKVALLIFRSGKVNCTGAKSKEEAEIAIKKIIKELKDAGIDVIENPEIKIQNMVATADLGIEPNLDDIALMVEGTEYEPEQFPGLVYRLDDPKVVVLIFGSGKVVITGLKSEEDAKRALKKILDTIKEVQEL

SaTBP;SaTFB (TFB1) (Sulfolobus acidocaldarius;Sulfolobus acidocaldarius), sequence (Q9UWN7 whole entry, looked up): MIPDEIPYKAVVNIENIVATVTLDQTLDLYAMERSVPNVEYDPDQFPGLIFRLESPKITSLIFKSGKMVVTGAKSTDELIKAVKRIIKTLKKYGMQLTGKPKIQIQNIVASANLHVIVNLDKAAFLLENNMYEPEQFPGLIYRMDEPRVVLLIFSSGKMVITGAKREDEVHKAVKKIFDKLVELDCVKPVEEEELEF

“CGGACCGAAAGCGCGACCATCGCCGGAGATTGGAGTAAAGTTTAAATACTG (double strand) [DNASSV (SSV T6 promoter)]” gave a Kd ([1]; SaTBP titrated, SaTFB 3 uM (Fig S7) or 2 uM) of 930 nM, a Kd ([1]; SaTFB titrated, 14 uM SaTBP) of 363 nM and a binding signal (% high FRET population) ([2]; 6 uM SaTBP, 5 uM SaTFB) of 92.

For DNASSV-BRE, the binding signal (% high FRET population) [3] was 62 and the binding signal (% high FRET population) ([2]; SaTBP + SaTFB, main text says no second population) was 29.

B1: DNAH2B (H2B promoter) (dsDNA)
DNA 1: CTTCACCTTATTTGCATAAGCGATTCTATATAAAAGCGCCTCGCTCTACCCTGCTCACGCTGTTTTTCCTTTTCGTTGGC
DNA 2: GCCAACGAAAAGGAAAAACAGCGTGAGCAGGGTAGAGCGAGGCGCTTTTATATAGAATCGCTTATGCAAATAAGGTGAAG
In the case of B1, the binding result [4] is reported as “binds” and the Kd [5] is reported as 4.2 ± 1.2 nM.

B2: DNASSV (SSV T6 promoter) (dsDNA)
DNA 1: CGGACCGAAAGCGCGACCATCGCCGGAGATTGGAGTAAAGTTTAAATACTG
DNA 2: CAGTATTTAAACTTTACTCCAATCTCCGGCGATGGTCGCGCTTTCGGTCCG
In the case of B2, the Kd [6] is reported as 48 ± 6 nM.
